Two substances from PMC12350838 can be followed below.

The target of test [1] is BoDV-1 L-P complex (one L-protein with a tetramer of P-protein) (Borna disease virus 1 (BoDV-1)). As to the kind of experiment: cryo-EM structure; Sample 1, RNA-free: co-expressed and co-purified L-P complex used immediately after elution, 0.33 mg/ml on grids; single particle analysis with 2D and 3D classification.
Test [2] shares this target. As to the kind of experiment: cryo-EM structure; Sample 2, reaction conditions: L-P complex with 25 μM 23mer template RNA, 20 μM triphosphorylated 6mer primer, 1 mM SAM, 1 mM each NTP, 1 h on ice, diluted to 0.4 mg/ml; single particle analysis, re-extraction in a larger box and 2D classification.
The target of test [3] is Borna disease virus 1 (BoDV-1) large protein (L-protein) (Borna disease virus 1 (BoDV-1)). In words: cryo-EM structure; Sample 1, RNA-free: co-expressed and co-purified L-P complex used immediately after elution, 0.33 mg/ml on grids; single particle analysis with 2D and 3D classification.
In test [4] the target is Borna disease virus 1 (BoDV-1) phosphoprotein (P-protein) (Borna disease virus 1 (BoDV-1)). The test is described as above.

Consider “BoDV-1 L-P complex (one L-protein with a tetramer of P-protein)”, for which, in test [1], the percent of particles as tetramers came to 0.2% and the stoichiometry N was 4. Also, in test [2], the percent of particles as dimers turned out to be 6% and the stoichiometry N was 2.

In test [3], “Borna disease virus 1 (BoDV-1) phosphoprotein (P-protein) (natural protein)” displayed a stoichiometry N (P-protein chains per L-protein) of 4. In test [4], this substance showed a stoichiometry N of 4.

As a reminder, the stoichiometry N is the number of molecules, sites or subunits per partner or assembly.
